Among the data in article PMC9270373 are stoichiometry N and ΔTm values, retold here.

Square brackets hold non-standard residues; d marks the D form. Ends that are not written are not given here. pT = C[C@@H](OP(=O)(O)O)[C@H](N)C(=O)O

In experiment [1] the target is potato 14-3-3 protein St14f (Solanum tuberosum L. (potato)). The experiment can be described thus: crystal structure; St14f free form, 2.5 Å; hanging drop, 12% (w/v) PEG 8000, 0.2 M ammonium tartrate pH 7, 277 K; three chains (A, B, C) in the asymmetric unit, dimers AA and BC.
For experiment [2], the target named is St14f D217A (Solanum tuberosum L. (potato)). Briefly: thermal shift assay; 10 µM St14f with no and with 100 µM StFDL1 peptide; SYPRO Orange; 10 mM HEPES pH 7.5, 0.15 M NaCl; heated from 25 to 99 °C; ΔTm = melting temperature difference with and without the peptide.
For experiment [3], the target named is St14f I221A M222A (Solanum tuberosum L. (potato)). The experiment is described as above.
Experiment [4] concerns the target St14f L229A (Solanum tuberosum L. (potato)). The experiment is described as above.
Experiment [5] addresses St14f S214L (Solanum tuberosum L. (potato)). Described as above.
The target of experiment [6] is St14f S214M (Solanum tuberosum L. (potato)). The description is as above.
Experiment [7] has as its target St14f S214T (Solanum tuberosum L. (potato)). Described as above.
In experiment [8] the target is St14f S218G (Solanum tuberosum L. (potato)). The experiment is described as above.
The target in experiment [9] is St14f S218L (Solanum tuberosum L. (potato)). The description is as above.
Experiment [10] concerns the target St14f S218M (Solanum tuberosum L. (potato)). The description is as above.
The target of experiment [11] is St14f Y215A (Solanum tuberosum L. (potato)). The description is as above.
The target in experiment [12] is potato 14-3-3 protein St14f (Solanum tuberosum L. (potato)). The description is as above.

As usually defined, the stoichiometry N is a count of units in the complex or per binding partner. In the case of “potato 14-3-3 protein St14f (natural protein)”, the stoichiometry N in [1] is 2.
As a reminder, the ΔTm is the change in melting temperature against a reference sample. Take LNRTS[pT]APF [StFDL1 peptide (LNRTSpTAPF)]: the ΔTm in experiment [2] amounted to 6.67 °C; in experiment [3], 4.63 °C; in experiment [4], 6.22 °C; in experiment [5] it was 4.26 °C; in experiment [6] it was 3.6 °C; in experiment [7] it was 4.01 °C. For the same molecule, the ΔTm in experiment [8] is 6.37 °C; in experiment [9], 7.61 °C; in experiment [10], 7.48 °C; in [11], 4.42 °C; in experiment [12] it was 4.03 °C.
